In patent publication US20210085756A1, “SUPERACTIVE MUTANT THYMIDINE KINASE FOR USE IN CANCER THERAPY” (MEDIZINISCHE UNIVERSITÄT WIEN, priority 2017, published 2021):
Read-outs that look alike come from different tables or passages of the source.

Tests used:
[1] = system: HeLa cervix carcinoma cells; assay: growth curves of superTk1 stable transfectant HeLa clone 117 with dTh, 5-FU or AraC +/- doxycyclin; settings: for inhibitory effect at concentrations lower than 5 μM: 2.5 and 1 μM, with dTh; for lowest concentration still able to cause cell growth arrest when combined with dTh: HeLa clone 117 superTk1, 0.1 mM dTh; for relative cell proliferation on day 4 compared to day 1: control groups without doxycycline; for relative cell proliferation on day 4 compared to day 1 / cell number of doxycyclin induced cells versus control without doxycyclin: 5 μM + 0.1 mM dTh; for cell number of doxycyclin induced cells versus control without doxycyclin: day 4
Protocol: Each sample was measured twice and setup as triplicates.
Each sample was set up as triplets and measured twice.
For this task this gene was integrated in pUHDhygr and stable transfected into HeLa cervix carcinoma cells. […] These transfected HeLa cells were grown under permanent hygromycin and puromycin selection pressure for 4 to 7 days, starting with 50.000 cells/well (12.500 cells/ml). In order to establish a perfect growth curve cell counts on a daily basis with a Casy cell counting system were mandatory.

[2] = system: L1210 leukemia cells; settings: after 0.1 mM dTh; cited from earlier work
[3] = system: rat hepatoma cells; settings: concomitant 1 mM dTh; cited from earlier work
[4] = 400 mg/m2/day; cited from earlier work
[5] = system: PC-3 cells; assay: MTT cell viability - cytotoxicity assay of stable pUHDsuperTK1 transfectants of PC-3; format: cell-based, Human (homo sapiens)
Description: The MTT assay is a colorimetric assay for assessing cell metabolic activity; see J Immunol Methods. […] 16; 65(1-2):55-63; Sigma Aldrich. […] MTT Cell Viability Applications. […] Its value was set at 100%.

[6] = system: normal and neoplastic cells; assay: cytotoxic impact of prolonged dTh in cell culture; format: cell-based; settings: administered for prolonged times
[7] = system: patients with relapsed leukemia or lymphoma; settings: cited from earlier work
[8] = dTh dose to mean plasma or serum level correlation; format: in vivo, human
Description: It can be expected that a therapy regimen employing these reduced concentration levels will be well tolerated by all patients, but still functioning.
Thus, there is normally a linear correlation between the dose/amount of dTh administered and the mean plasma level or mean serum level.

[9] = system: PC-3 prostate carcinoma cells; assay: growth experiment, stable pUHDsuperTk1/wtTk1 transfectants of PC-3 treated with dTh +/- doxycyclin; format: cell-based, Human (homo sapiens)
Protocol: Cell batches that expressed superTk1 received 5 μg/ml doxycyclin replenished on a daily basis. The control samples received all other constituents (dTh, antibiotics) but no doxycyclin. In addition, the cell culture medium was renewed completely every 72 hrs in all wells in order to avoid unwanted starvation or deprivation effects.
Cell batches that expressed wtTk1 received 5 μg/ml doxycyclin replenished on a daily basis. The control samples received all other constituents (dTh, antibiotics) but no doxycyclin. In addition, the cell culture medium was renewed completely after 72 hrs in all wells in order to avoid unwanted starvation or deprivation effects.

[10] = system: human cytosolic Tk1; assay: thymidine kinase specific enzyme activity assay (3H-dTh, DE81 filters); format: biochemical
Protocol: (§1) For the determination of a specific activity a quantification of the protein solution was done first, according the method of Bradford. The dye stock solution (Biorad) containing methanol and acetic acid was diluted 1:4 with ddH2O. An aliquot of the protein solution was then filled up to 1 ml with the diluted Bradford solution. (Usually 5l of protein solution are diluted in […] Bradford solution. The protein concentration is calculated by multiplying the absorbance at =595 nm with 17 and dividing this by 5, resulting in the concentration in μg/μl.) Depending on the concentration of the kinases 5-20 μl of the sample solution were used.
(§2) The following components were mixed for the enzyme assay:
(§3) 10 fold mix: • 0.5 M Tris-HCl, pH 7.5 • 0.1 M DTT • 25 mM ATP • 25 mM MgCl2
(§4) Set up for the activity test: 5.0 μl 10-fold mix • 2.5 μl BSA (60 mg/ml) • 1.0 μl Chaps (25 mM) • 1.0 μl NaF (0.15 M) • 1.0 μl ^3H-dTh or 3H-dCyd (500 μM, 2 Ci/mmol) • 5.0-20 μl of the protein solution • Filled up with ddH2O to 50 μl
(§5) The set-up was incubated at 37° C. At distinct times 10 μl aliquots were removed from the reaction mix and pipetted onto small pieces of DE81-filters. After removal of every aliquot, the filter papers were washed in a big volume of ammonium formiat (5 mM for TK assay), transferred to water and rinsed, and finally dried after shortly immersing them in ethanol. Then, after the dried filters were transferred into the scintillation tubes, the bound radioactive nucleotides were eluted by addition of 500 μl elution buffer (0.1 M HCl, 0.2 M KCl). 2.5 ml of scintillation solution were added before measuring the radioactivity. A standard was created in order to convert the cpm-values into pmol: 5 μl from some of the reactions were removed and pipetted on DE81-filters, which were not washed, but directly transferred to the scintillation tubes, treated like described above, and measured. 5 μl of the standard contained 50 pMol of the substrate or the product. From the cpm-values of these samples one got the converting factor UF (is equal to the specific activity of the used substrate): UF=cpm standard/50 pMol
(§6) For the calculation of the whole enzymatic activity of one fraction (U) the following formula was used:
(§7) 10 μl were pipetted at each time point onto the filter, and 20 μl of the protein solution was initially used. cpm=(cpmt2−cpm t1)/t2−t1 (cpm/min); t1=start of the reaction; t2=end of the reaction, e.g. 5 min; Vol=total volume of the fraction (μl); UF is the specific activity (see above) (cpm/pMol); U is the whole activity of the enzyme per fraction (pMol/min×μl=Mol/min×ml).

[11] = system: PC-3 prostate cancer cells; assay: FACS DNA profile (propidium iodide) cell cycle distribution of PC-3 superTK1 clone 2; format: cell-based, Human (homo sapiens); settings: 0.5 mM dTh + 5 μg/ml doxycycline for 3 days
[12] = molecular target: T1, human cytosolic Tk1 (Homo sapiens, UniProt P04183, G90A/K211R); assay: thymidine kinase specific enzyme activity assay (3H-dTh, DE81 filters); format: biochemical
T1 construct: made in house
T1 sequence (P04183 with tags, fused parts or gaps G90A/K211R): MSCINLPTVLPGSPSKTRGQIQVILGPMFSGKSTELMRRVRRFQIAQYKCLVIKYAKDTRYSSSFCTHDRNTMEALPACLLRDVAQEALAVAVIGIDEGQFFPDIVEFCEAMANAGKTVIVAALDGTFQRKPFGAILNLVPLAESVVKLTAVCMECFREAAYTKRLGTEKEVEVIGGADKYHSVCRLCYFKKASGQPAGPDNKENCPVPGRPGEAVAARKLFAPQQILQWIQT
Protocol: as §1, §2, §3, §4, §5, §6, §7

[13] = doxycycline (superTK1 induced), no dTh added
[14] = infusion, up to 240 g/sq m/day for 14 to 29 days
[15] = 0.5 mM dTh daily + 5 μg/ml doxycyclin, superTk1 clone 2 (7 days) or wtTk1 clone 7 (5 days)

## Nc1ccn([C@@H]2O[C@H](CO)[C@@H](O)[C@@H]2O)c(=O)n1 [AraC, cytosine arabinoside]
[1]
  inhibitory effect at concentrations lower than 5 μM: too low to exert any inhibitory effects
  lowest concentration still able to cause cell growth arrest when combined with dTh: 5 µM
  relative cell proliferation on day 4 compared to day 1: 2.4 fold
  cell number of doxycyclin induced cells versus control without doxycyclin: reduced almost to half
[2]
  increase of incorporation into DNA: 5 fold
[3]
  increase of incorporation into the DNA: over 2 fold

## O=c1[nH]cc(F)c(=O)[nH]1 [5-FU, 5-fluorouracil]
[1]
  inhibitory effect at concentrations lower than 5 μM: too low to exert any inhibitory effects
  lowest concentration still able to cause cell growth arrest when combined with dTh: 5 µM
  relative cell proliferation on day 4 compared to day 1: 3.3 fold
  cell number of doxycyclin induced cells versus control without doxycyclin: reduced almost to half
[4]
  cmax in the serum: 55.44 µg/mL

## C[C@H]1c2cccc(O)c2C(=O)C2=C(O)[C@]3(O)C(=O)C(C(N)=O)=C(O)[C@@H](N(C)C)[C@@H]3[C@@H](O)[C@@H]21 [doxycycline, reference compound]
[5]; [13]
  cell viability (MTT) compared to control: 30%

## Cc1cn([C@H]2C[C@H](O)[C@@H](CO)O2)c(=O)[nH]c1=O [dTh, deoxythymidine]
[5]; 0.5 mM dTh daily for 3 days, no doxycycline
  ability to convert the MTT dye, percentage of control absorbance: 55%
[6]
  dTh levels exerting cytotoxic impacts: exceeding 4 mM
[7]; acute leukemia previously refractory to treatment
  therapy outcome: complete remission in some patients
[7]; [14]
  mean plasma dTh levels: 5.5 mM
  side effects: nausea, vomiting, hepatotoxicity, electrolyte imbalances, mild central nervous system toxicity and bone marrow aplasia
[8]; 5 g dTh/sqm/day
  mean plasma level or mean serum level: about 0.1 mM
[8]; 25 g dTh/sqm/day
  mean plasma level or mean serum level: about 0.5 mM

B1: wt: wild-type human cytosolic thymidine kinase 1, aa sequence SEQ ID NO. 28 (protein, listed as Homo sapiens)
chain: MSCINLPTVLPGSPSKTRGQIQVILGPMFSGKSTELMRRVRRFQIAQYKCLVIKYAKDTRYSSSFCTHDRNTMEALPACLLRDVAQEALGVAVIGIDEGQFFPDIVEFCEAMANAGKTVIVAALDGTFQRKPFGAILNLVPLAESVVKLTAVCMECFREAAYTKRLGTEKEVEVIGGADKYHSVCRLCYFKKASGQPAGPDNKENCPVPGKPGEAVAARKLFAPQQILQCSPAN
modifications: Human TK1 wt NM_003258
[9]; [15]
  relative cell proliferation (in words): proliferate nicely, almost as well as the control cells
[10]
  measured specific Tk1 enzyme activity: 37 pmol/mg/min

B2: human TK1 mut G90A: mutant human thymidine kinase 1 with G90A, aa sequence SEQ ID No. 12, here called superTk1 (protein)
chain: MSCINLPTVLPGSPSKTRGQIQVILGPMFSGKSTELMRRVRRFQIAQYKCLVIKYAKDTRYSSSFCTHDRNTMEALPACLLRDVAQEALAVAVIGIDEGQFFPDIVEFCEAMANAGKTVIVAALDGTFQRKPFGAILNLVPLAESVVKLTAVCMECFREAAYTKRLGTEKEVEVIGGADKYHSVCRLCYFKKASGQPAGPDNKENCPVPGRPGEAVAARKLFAPQQILQWIQT
modifications: Human TK1 mutG90A
[5]; 0.5 mM dTh + doxycycline (superTK1 induced)
  cell viability (MTT) compared to control: approx. 20%
[5]; [13]
  cell viability (MTT) compared to control: approx. 30%
[11]
  cells in G2/M phase: No cells were detectable
  cells in S phase: Over 75%
  portion of cells in G1 phase: approx. one fourth
[9]; [15]
  relative cell proliferation (in words): do not proliferate and even decrease in cell number from day 4
[9]; clone 13, 0.1 mM dTh daily + doxycyclin, four days
  relative cell proliferation (in words): did not allow the cells to proliferate at all
[1]; 0.1 mM dTh and doxycyclin induction
  growth of tumor cell cultures (in words): clear growth repression
[12]; after 5 min incubation time
  activity compared to the wt Tk1: 9 fold
[12]; after 10 min incubation time
  activity compared to the wt Tk1: 18.2 fold
[12]; data retrieved from a different experiment
  measured specific Tk1 enzyme activity: 375 pmol/mg/min
[10]; listed as A90G
  specific activity compared to the wild type enzyme: more than 9 fold
[10]; listed as G90A
  specific activity compared to the wild type enzyme: about 9 fold
[10]; listed as superTk1
  specific activity compared to the wild type enzyme: more than 9 fold

B3: human TK1 mut V84DG90A: double mutant human thymidine kinase 1, aa sequence SEQ ID No. 16; domain aa 71-95 NTMEALPACLLRDDAQEALAVAVIG (protein)
chain: MSCINLPTVLPGSPSKTRGQIQVILGPMFSGKSTELMRRVRRFQIAQYKCLVIKYAKDTRYSSSFCTHDRNTMEALPACLLRDDAQEALAVAVIGIDEGQFFPDIVEFCEAMANAGKTVIVAALDGTFQRKPFGAILNLVPLAESVVKLTAVCMECFREAAYTKRLGTEKEVEVIGGADKYHSVCRLCYFKKASGQPAGPDNKENCPVPGRPGEAVAARKLFAPQQILQWIQT
modifications: Human TK1 mutV84DG90A
[10]
  measured specific Tk1 enzyme activity: 393 pmol/mg/min
  specific activity compared to the wild type enzyme: at least 9 fold

B4: human TK1 mut L8081F: double mutant named "feeble" Tk1 with decreased specific activity, aa sequence SEQ ID No. 26 (protein)
chain: MSCINLPTVLPGSPSKTRGQIQVILGPMFSGKSTELMRRVRRFQIAQYKCLVIKYAKDTRYSSSFCTHDRNTMEALPACFFRDVAQEALGVAVIGIDEGQFFPDIVEFCEAMANAGKTVIVAALDGTFQRKPFGAILNLVPLAESVVKLTAVCMECFREAAYTKRLGTEKEVEVIGGADKYHSVCRLCYFKKASGQPAGPDNKENCPVPGRPGEAVAARKLFAPQQILQWIQT
modifications: Human TK1 mutL8081F
[10]
  measured specific Tk1 enzyme activity: 1.4 pmol/mg/min
[10]; compared to wild type
  change of specific activity (in words): strong decrease of specific activity
